Consider ten molecules from paper PMC3069497.

T1: Peptide C (bovine)
T1 sequence (peptide): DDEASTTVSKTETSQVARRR

B1: bovine GRK1 C-terminally truncated at residue 535 and tagged with hexahistidine (GRK1_(535)H6), wild type (enzyme)
chain: MDFGSLETVVANSAFIAARGSFDASSGPASRDRKYLARLKLPPLSKCEALRESLDLGFEGMCLEQPIGKRLFQQFLRTHEQHGPALQLWKDIEDYDTADDALRPQKAQALRAAYLEPQAQLFCSFLDAETVARARAGAGDGLFQPLLRAVLAHLGQAPFQEFLDSLYFLRFLQWKWLEAQPMGEDWFLDFRVLGRGGFGEVFACQMKATGKLYACKKLNKKRLKKRKGYQGAMVEKKILAKVHSRFIVSLAYAFETKTDLCLVMTIMNGGDIRYHIYNVDEDNPGFQEPRAIFYTAQIVSGLEHLHQRNIIYRDLKPENVLLDDDGNVRISDLGLAVELKAGQTKTKGYAGTPGFMAPELLLGEEYDFSVDYFALGVTLYEMIAARGPFRARGEKVENKELKQRVLEQAVTYPDKFSPASKDFCEALLQKDPEKRLGFRDGSCDGLRTHPLFRDISWRQLEAGMLTPPFVPDSRTVYAKNIQDVGAFSTVKGVAFEKADTEFFQEFASGTCPIPWQEEMIETGVFGDLNVWRPDG
B2: GRK1_(535)H6 A11E (enzyme)
chain: B1 chain with A11E
B3: GRK1_(535)H6 I16A (enzyme)
chain: B1 chain with I16A
B4: GRK1_(535)H6 A18E (enzyme)
chain: B1 chain with A18E
B5: GRK1_(535)H6 N12A (enzyme)
chain: B1 chain with N12A
B6: GRK1_(535)H6 V9A (enzyme)
chain: B1 chain with V9A
B7: GRK1_(535)H6 E7A (enzyme)
chain: B1 chain with E7A
B8: GRK1_(535)H6 L6A (enzyme)
chain: B1 chain with L6A
B9: GRK1_(535)H6 V10A (enzyme)
chain: B1 chain with V10A
B10: GRK1_(535)H6 F15A (enzyme)
chain: B1 chain with F15A

Substitutions are numbered along the chain they refer to. In names and notes the source's numbering stands.

The first assay has as its target bovine rhodopsin, photoactivated (Rho*) (bovine) (UniProt P02699).
Sequence of UniProt P02699 (P02699 whole entry): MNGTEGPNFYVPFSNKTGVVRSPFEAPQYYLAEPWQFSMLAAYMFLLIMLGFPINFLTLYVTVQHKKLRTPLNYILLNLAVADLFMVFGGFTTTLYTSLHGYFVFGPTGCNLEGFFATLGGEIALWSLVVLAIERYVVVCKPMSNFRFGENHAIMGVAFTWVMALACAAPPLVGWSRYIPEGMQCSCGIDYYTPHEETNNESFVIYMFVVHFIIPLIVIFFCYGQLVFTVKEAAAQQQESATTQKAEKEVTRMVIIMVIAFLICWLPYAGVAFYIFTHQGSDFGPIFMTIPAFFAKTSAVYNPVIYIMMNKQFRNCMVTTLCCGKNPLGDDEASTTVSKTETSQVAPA
Take B1: the KM of ROS (Rho*) phosphorylation stood at 3.4 µM.
Same read-out and setting: to B2 belongs 8.8 µM.
Still for that read-out and setting: to B3 belongs 9.5 µM; to B4, 6.1 µM; to B5, 20 µM.
On the same count and under the same terms, to B6 belongs 18 µM.
For the molecule B7, the KM of ROS (Rho*) phosphorylation was determined as 13 µM.
Consider B8, for which the KM of ROS (Rho*) phosphorylation was found to be 12 µM.
On the same count and under the same terms, next, B9: 21 µM; B10: 11 µM.

A further assay addresses T1, Peptide C (bovine).
Take B1: the KM of peptide C phosphorylation turned out to be 320 µM.
On the same count and under the same terms, to B2 belongs 310 µM.
As for B3, the KM of peptide C phosphorylation amounted to 220 µM.
Same read-out and setting: to B4 belongs 410 µM; to B5, 500 µM.
Still for that read-out and setting: next, B6: 350 µM; B7: 410 µM; B8: 280 µM.
On the same count and under the same terms, to B9 belongs 390 µM; to B10, 350 µM.

Another assay has as its target bovine rhodopsin, photoactivated (Rho*) (bovine) (UniProt P02699). The source holds these as a separate data set.
On to B1, for which the decrease of the magnitude of the fluorescence change of Meta II decay worked out at 35%.
